The values below come from US20190248877A1 (Hoffmann-La Roche, published 2019).

Assay in all cases: SPR ProteOn XPR36, biotinylated antigen on NLC chip, Fab as analyte, 25 C
Test [1] addresses T1, GST huTNC fn5 A1234 BC fn6 B (human, UniProt P24821 984-1798, biotin on the C-terminal avi-tag (BirA, site-specific)).
T1 construct: also called Human GST-fused TnC fn5 A1234 BC fn6
T1 sequence: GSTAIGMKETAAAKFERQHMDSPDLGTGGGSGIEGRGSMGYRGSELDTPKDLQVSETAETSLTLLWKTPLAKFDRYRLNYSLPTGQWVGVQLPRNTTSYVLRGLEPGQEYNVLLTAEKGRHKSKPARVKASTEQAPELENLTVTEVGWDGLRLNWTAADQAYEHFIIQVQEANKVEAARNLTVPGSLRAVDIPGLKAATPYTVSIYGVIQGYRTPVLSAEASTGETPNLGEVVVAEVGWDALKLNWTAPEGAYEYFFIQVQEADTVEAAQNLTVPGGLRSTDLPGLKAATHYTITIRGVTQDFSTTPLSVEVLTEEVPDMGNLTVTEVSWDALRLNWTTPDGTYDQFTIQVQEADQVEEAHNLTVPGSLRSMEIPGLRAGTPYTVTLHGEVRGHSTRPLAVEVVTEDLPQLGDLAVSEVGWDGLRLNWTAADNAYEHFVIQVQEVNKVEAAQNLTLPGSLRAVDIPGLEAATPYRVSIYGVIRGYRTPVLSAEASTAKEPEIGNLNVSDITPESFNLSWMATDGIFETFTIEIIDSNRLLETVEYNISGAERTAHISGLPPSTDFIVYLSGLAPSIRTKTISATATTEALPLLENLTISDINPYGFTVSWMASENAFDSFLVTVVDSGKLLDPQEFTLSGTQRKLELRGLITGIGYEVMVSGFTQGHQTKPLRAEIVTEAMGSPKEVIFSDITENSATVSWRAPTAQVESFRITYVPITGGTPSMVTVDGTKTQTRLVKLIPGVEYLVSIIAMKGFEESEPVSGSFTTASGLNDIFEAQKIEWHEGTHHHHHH
As to the method:
(§1) Immobilization of antigens (ligand): Recombinant antigens were diluted with PBST (10 mM phosphate, 150 mM sodium chloride pH 7.4, 0.005% Tween 20) to 10 μg/ml, then injected at 30 μl/minute in vertical orientation. Injection of analytes: For ‘one-shot kinetics’ measurements, injection direction was changed to horizontal orientation, two-fold dilution series of purified Fab were injected simultaneously along separate channels 1-5, with association times of 200 s, and dissociation times of 240 s, respectively. Buffer (PBST) was injected along the sixth channel to provide an “in-line” blank for referencing. Association rate constants (kₒₙ) and dissociation rate constants (koff) were calculated using a simple one-to-one Langmuir binding model in ProteOn Manager v3.1 software by simultaneously fitting the association and dissociation sensorgrams. The equilibrium dissociation constant (KD) was calculated as the ratio koff/kₒₙ.

The target of test [2] is GST huTNCfn5 mu A124 BC hu fn6 B (human fn5 and fn6, murine extra splice …, biotin on the C-terminal avi-tag (BirA, site-specific)). The procedure: as §1
For test [3], the target named is T2, GST huTNC fn5 A1234 fn6 B (human, biotin on the C-terminal avi-tag (BirA, site-specific)).
T2 chain: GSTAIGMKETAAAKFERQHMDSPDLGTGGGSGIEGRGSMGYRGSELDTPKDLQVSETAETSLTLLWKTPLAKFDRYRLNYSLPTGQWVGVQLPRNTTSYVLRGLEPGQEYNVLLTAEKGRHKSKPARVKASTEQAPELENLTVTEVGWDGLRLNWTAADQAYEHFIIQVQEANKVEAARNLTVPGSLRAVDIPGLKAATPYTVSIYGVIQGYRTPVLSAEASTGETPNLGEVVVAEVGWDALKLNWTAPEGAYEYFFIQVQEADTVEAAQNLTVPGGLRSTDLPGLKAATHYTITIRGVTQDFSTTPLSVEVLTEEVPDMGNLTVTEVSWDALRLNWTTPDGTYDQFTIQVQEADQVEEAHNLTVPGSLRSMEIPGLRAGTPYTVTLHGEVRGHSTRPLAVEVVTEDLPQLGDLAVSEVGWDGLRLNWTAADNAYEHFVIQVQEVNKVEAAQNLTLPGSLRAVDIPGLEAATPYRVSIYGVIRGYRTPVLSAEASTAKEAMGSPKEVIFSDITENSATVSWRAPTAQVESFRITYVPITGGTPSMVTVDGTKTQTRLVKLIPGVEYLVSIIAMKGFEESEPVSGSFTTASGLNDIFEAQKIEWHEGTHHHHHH
As to the method:
as §1

In test [4] the target is T3, huTNC A4 B (human, biotin on the C-terminal avi-tag (BirA, site-specific)).
T3 chain: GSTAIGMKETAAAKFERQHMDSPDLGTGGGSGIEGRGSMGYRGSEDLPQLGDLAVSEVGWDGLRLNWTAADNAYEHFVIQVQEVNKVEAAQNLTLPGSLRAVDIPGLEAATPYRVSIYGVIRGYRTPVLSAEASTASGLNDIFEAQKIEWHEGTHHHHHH
The procedure:
as §1

The target of test [5] is T4, huTNC A1 B (human).
T4 chain: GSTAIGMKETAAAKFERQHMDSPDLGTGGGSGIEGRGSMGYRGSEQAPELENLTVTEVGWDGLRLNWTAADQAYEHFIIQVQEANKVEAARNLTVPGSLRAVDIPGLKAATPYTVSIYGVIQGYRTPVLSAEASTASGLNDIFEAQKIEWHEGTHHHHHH
The procedure: as §1

B1: anti-TnC clone 18D4 Fab fragment (Fab, V domains shown)
VH: QVQLVQSGAEVKKPGSSVKVSCKASGGTFSSYAISWVRQAPGQGLEWMGGIIPIFGTANYAQKFQGRVTITADKSTSTAYMELSSLRSEDTAVYYCAKGNFYGGLDYWGQGTTVTVSS
VL: DIQMTQSPSTLSASVGDRVTITCRASQSISSWLAWYQQKPGKAPKLLIYDASSLESGVPSRFSGSGSGTEFTLTISSLQPDDFATYYCQQNKKFPSGTFGQGTKVEIK
Consider B1, for which the Kd in test [1] was found to be 4 nM; in test [2], 11.2 nM; in test [3], 5 nM; in test [4], 2 nM; in test [5] it was 5.6 nM.

For orientation: Kd means the constant that tells how readily two partners part at equilibrium. A low value points to higher affinity.
